Changes are numbered by the printed parent chain.
T1: human CEACAM6, full-length, on cells (human, UniProt P40199 35-320)
T1 construct: used both for transfected HeLa cells and for tumor cell lines that express CEACAM6 endogenously; also called TPP-4639; HeLa human CEACAM6
T1 sequence: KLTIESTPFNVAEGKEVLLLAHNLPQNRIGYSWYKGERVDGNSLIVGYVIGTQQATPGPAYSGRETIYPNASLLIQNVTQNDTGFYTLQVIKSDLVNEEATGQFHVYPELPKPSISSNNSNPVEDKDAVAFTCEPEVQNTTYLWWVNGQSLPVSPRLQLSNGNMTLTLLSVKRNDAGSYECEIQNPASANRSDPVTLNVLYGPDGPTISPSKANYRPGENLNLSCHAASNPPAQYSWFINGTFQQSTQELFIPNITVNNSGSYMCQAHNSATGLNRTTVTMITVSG

T2: human CEACAM1, full-length, on transfected HeLa cells (human, UniProt P13688 35-526)
T2 construct: also called TPP-4185; HeLa human CEACAM1
T2 sequence: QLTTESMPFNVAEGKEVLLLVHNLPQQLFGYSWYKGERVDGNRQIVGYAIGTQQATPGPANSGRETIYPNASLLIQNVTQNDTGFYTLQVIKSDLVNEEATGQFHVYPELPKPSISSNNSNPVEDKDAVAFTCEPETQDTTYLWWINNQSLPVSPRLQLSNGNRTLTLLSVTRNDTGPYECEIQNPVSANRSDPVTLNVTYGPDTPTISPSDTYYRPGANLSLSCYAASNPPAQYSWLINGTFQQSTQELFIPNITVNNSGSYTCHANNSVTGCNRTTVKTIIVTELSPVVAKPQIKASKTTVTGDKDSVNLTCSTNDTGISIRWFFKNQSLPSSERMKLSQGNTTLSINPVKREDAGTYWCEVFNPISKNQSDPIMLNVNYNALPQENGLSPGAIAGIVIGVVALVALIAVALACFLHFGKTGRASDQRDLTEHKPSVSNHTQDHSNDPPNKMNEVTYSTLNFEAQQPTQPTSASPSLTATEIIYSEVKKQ

T3: human CEACAM5, full-length, on transfected HeLa cells (human, UniProt P06731 35-685, GPI anchor at the C-terminus on the cell surface, not carried by the letters)
T3 construct: also called TPP-4188; HeLa human CEACAM5
T3 sequence: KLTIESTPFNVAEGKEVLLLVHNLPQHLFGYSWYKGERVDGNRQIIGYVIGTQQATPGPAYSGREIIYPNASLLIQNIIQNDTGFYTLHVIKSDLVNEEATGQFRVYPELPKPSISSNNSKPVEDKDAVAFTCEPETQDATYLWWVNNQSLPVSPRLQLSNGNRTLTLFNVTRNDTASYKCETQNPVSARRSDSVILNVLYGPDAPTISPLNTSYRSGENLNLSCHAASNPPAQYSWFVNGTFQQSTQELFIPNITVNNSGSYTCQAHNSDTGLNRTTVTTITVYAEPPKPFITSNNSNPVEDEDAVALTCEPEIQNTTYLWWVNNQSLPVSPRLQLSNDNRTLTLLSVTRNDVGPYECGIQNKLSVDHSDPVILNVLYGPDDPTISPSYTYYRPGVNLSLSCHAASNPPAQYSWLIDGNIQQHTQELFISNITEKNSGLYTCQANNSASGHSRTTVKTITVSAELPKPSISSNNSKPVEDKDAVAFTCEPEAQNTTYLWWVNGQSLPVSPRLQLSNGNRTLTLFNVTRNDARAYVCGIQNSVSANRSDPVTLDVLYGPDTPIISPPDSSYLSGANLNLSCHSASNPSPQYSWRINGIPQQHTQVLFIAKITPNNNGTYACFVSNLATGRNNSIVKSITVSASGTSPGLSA

B1: TPP-3714 (antibody, human IgG2, kappa)
heavy: QVTLRESGPALVKPTQTLTLTCTFSGFSLSTYGIGVGWIRQPPGKALEWLAHIWWNDNKYYSTSLKTRLTISKDTSKNQVVLTMTNMDPVDTATYYCARISLPYFDYWGQGTLVTVSSASTKGPSVFPLAPCSRSTSESTAALGCLVKDYFPEPVTVSWNSGALTSGVHTFPAVLQSSGLYSLSSVVTVPSSNFGTQTYTCNVDHKPSNTKVDKTVERKCCVECPPCPAPPVAGPSVFLFPPKPKDTLMISRTPEVTCVVVDVSHEDPEVQFNWYVDGVEVHNAKTKPREEQFNSTFRVVSVLTVVHQDWLNGKEYKCKVSNKGLPAPIEKTISKTKGQPREPQVYTLPPSREEMTKNQVSLTCLVKGFYPSDIAVEWESNGQPENNYKTTPPMLDSDGSFFLYSKLTVDKSRWQQGNVFSCSVMHEALHNHYTQKSLSLSPG
light: DIQLTQSPSFLSASVGDRVTITCKASQNVGTAVAWYQQKPGKAPKLLIYSASNRYTGVPSRFSGSGSGTEFTLTISSLQPEDFATYYCQQYSSYPLTFGGGTKVEIKRTVAAPSVFIFPPSDEQLKSGTASVVCLLNNFYPREAKVQWKVDNALQSGNSQESVTEQDSKDSTYSLSSTLTLSKADYEKHKVYACEVTHQGLSSPVTKSFNRGEC
notes: humanized from TPP-2971, human IgG2; also called TPP-2971HU2-hIgG2Kappa
B2: TPP-3707 (antibody, human IgG2, kappa, V domains shown)
VH: EVQLVESGGGLVQPGGSLRLSCAASGFTFSLYQMHWVRQAPGKGLEWVSWISFSGGNTGYADSVKGRFTISRDNSKNTLYLQMNSLRAEDTAVYYCARATGYSSPWYLDPWGQGTLVTVSS
VL: DIQMTQSPSSLSASVGDRVTITCQASHEIDNYLNWYQQKPGKAPKLLIYDAYWSKTGVPSRFSGSGSGTDFTLTISSLQPEDIATYYCQGYDDLSVTFGGGTKVDIKR
notes: also called 090E-M007-A09-Mat2-hIgG2-hIgG2Kappa
B3: TPP-3821 (antibody, human IgG2, kappa, V domains shown)
VH: QVTLRESGPALVKPTQTLTLTCTFSGFSLSTYGIGVGWIRQPPGKALEWLAHIWWNDNKYYSTSLKTRLTISKDTSKNQVVLTMTNMDPVDTATYYCARISLPYFDYWGQGTLVTVSS
VL: DIQLTQSPSFLSASVGDRVTITCKASQNVGTAVAWYQQKPGKAPKLLIYSASNRYTGVPSRFSGSGSGTEFTLTISSLQPEDFATYYCQQYNNYPLTFGGGTKVEIKR
notes: humanized from TPP-3187, human IgG2; also called 3187HU2-hIgG2Kappa
B4: TPP-3820 (antibody, human IgG2, kappa, V domains shown)
VH: B3 VH with S30T, A46G
VL: B3 VL
notes: humanized from TPP-3187, human IgG2; also called 3187HU1-hIgG2Kappa
B5: TPP-3310 (antibody, human IgG2, kappa)
heavy: B1 heavy with L113T, V114L
light: B1 light
notes: humanized from TPP-2971, human IgG2; also called TPP-2971HU1-hIgG2Kappa
B6: TPP-2971 (antibody, mouse IgG1, V domains shown)
VH: QVTLKESGPGILQPSQTLSLTCSFSGFSLSTYGIGVGWIRQPSGKDLEWLAHIWWNDNKYYNTALKSRLTISKDTSNNQVFLKIASVDTADTATYYCARISLPYFDYWGQGTTLTVSS
VL: DIVMTQSQKFMSTSVGDRVSITCKASQNVGTAVAWYQQKPGQSPKLLIYSASNRYTGVPDRFTGSGSGTDFTLTISNMQSEDLADYFCQQYSSYPLTFGAGTKLELK
notes: murine hybridoma antibody, mouse IgG1; also called 792.15H12C9
B7: TPP-3323 (antibody, human IgG2, kappa, V domains shown)
VH: B6 VH with S30T, D46G
VL: DIVMTQSQKFMSTSVGDRVSITCKASQNVGTAVAWYQQKPGQSPKLLIYSASNRYTGVPDRFTGSGSGTDFTLTISNMQSEDLADYFCQQYNNYPLTFGAGTKLELKR
notes: human IgG2 chimera; also called TPP-3187X1-hIgG2; hIgG2 chimera of TPP-3187
B8: TPP-3187 (antibody, mouse IgG1, V domains shown)
VH: B6 VH with S30T, D46G
VL: B6 VL with S92N, S93N
notes: murine hybridoma antibody, mouse IgG1; also called 792.15C4F4
B9: TPP-3308 (antibody, human IgG2, kappa, V domains shown)
VH: B6 VH
VL: B7 VL with N92S, N93S
notes: human IgG2 chimera; also called TPP-2971X1-hIgG2Kappa; hIgG2 chimera of TPP-2971

Assays:
Assay in all cases: FACS, transfected HeLa cells
[1] = molecular target: T1, human CEACAM6, full-length, on cells
Protocol: (§1) For FACS experiments HeLa wild type cells were cultured in RPMI-1640, 10% FCS, while CEACAM-receptor transfected HeLa cells received in addition 0.5% Gentamycin (stock 10 mg/ml, Fa. PAA) and 200 μg/ml Hygromycin B (stock 50 mg/ml, Invitrogen). Cells were washed 3 times with PBS w/o Ca²⁺/Mg²⁺ and were detached from the culture plate non-enzymatically with EDTA dissociation buffer (Gibco). Cells were washed in cold FACS buffer (PBS w/o Ca²⁺/Mg²⁺ and heat-inactivated 3% FCS) and were counted using a countess machine (Invitrogen). 10⁵ cells per well were plated and incubated with the respective primary antibody (5 μg/ml) for 1 h at 4° C. on a plate shaker. […] After 2 times washing the cells were resuspended in 100 μl FACS buffer and were analysed on a FACS Canto II machine (Beckton Dickinson) or a FACS Array (Beckton Dickinson).
(§2) For EC₅₀ analysis, the primary antibodies were used at increasing concentrations in a range from 0.1 nM to 100 nM. Half maximal binding values (EC₅₀) were determined by plotting the median fluorescence intensity signal against the concentration (logarithmic scale). Curve fitting of data was performed using the Graph Pad prism analysis software.

[2] = molecular target: T2, human CEACAM1, full-length, on …
Protocol: as §1, §2

[3] = molecular target: T3, human CEACAM5, full-length, on …
Protocol: as §1, §2

| Binder | EC50 [1] | binding result [2] | binding result [3] | FACS median fluorescence [1] | FACS median fluorescence [2] |
| --- | --- | --- | --- | --- | --- |
| B1 | 1 nM | no binding (tested: 5 µg/ml) | no binding (tested: 5 µg/ml) |  |  |
| B2 | 19 nM |  | no binding (tested: 5 µg/ml) | 1000 to 10000 medianfluorescence | 10 to 100 medianfluorescence |
| B3 | 1 nM | no binding (tested: 5 µg/ml) | no binding (tested: 5 µg/ml) |  |  |
| B4 | 1 nM | no binding (tested: 5 µg/ml) | no binding (tested: 5 µg/ml) |  |  |
| B5 | 0.6 nM | no binding (tested: 5 µg/ml) | no binding (tested: 5 µg/ml) |  |  |
| B6 | 0.5 nM | no binding (tested: 5 µg/ml) | no binding (tested: 5 µg/ml) | 10 to 100 medianfluorescence |  |
| B7 | 0.6 nM | no binding (tested: 5 µg/ml) | no binding (tested: 5 µg/ml) | 10 to 100 medianfluorescence |  |
| B8 | 0.35 nM | no binding (tested: 5 µg/ml) | no binding (tested: 5 µg/ml) | 100 to 1000 medianfluorescence |  |
| B9 | 0.45 nM | no binding (tested: 5 µg/ml) | no binding (tested: 5 µg/ml) | 10 to 100 medianfluorescence |  |

— patent US20200181261A1 (Bayer, published 2020)
